Measurements: patent US20110189729

Molecular target: lambda integrase Int-h/218 h/218 mutant (substitutions not given) (Bacteriophage lambda) (UniProt P03700)
Experiment: cell_activity
Settings: CHO-DG44

TCTGTTACAGGTCACTAATACCATCTAAGTAGTTGATTCATAGTGACTGCATATGTTGTGTTTTACAGTATTATGTAGTCTGTTTTTTATGCAAAATCTAATTTAATATATTGATATTTATATCATTTTACGTTTCTCGTTCAGCTTTTTTATACTAAGTTGGCATTATAAAAAAGCATTGCTTATCAATTTGTTGCAACGAACAGGTCACTATCAGTCAAAATAAAATCATTATTTGATTTC / GAAATCAAATAATGATTTTATTTTGACTGATAGTGACCTGTTCGTTGCAACAAATTGATAAGCAATGCTTTTTTATAATGCCAACTTAGTATAAAAAAGCTGAACGAGAAACGTAAAATGATATAAATATCAATATATTAAATTAGATTTTGCATAAAAAACAGACTACATAATACTGTAAAACACAACATATGCAGTCACTATGAATCAACTACTTAGATGGTATTAGTGACCTGTAACAGA / GCTGTTACAGGTCACTAATACCATCTATGTAGTTGATTCATATTGTCTGCATATCTTGTGTTTTACAGTATTATCTAGTCTGTTTTTTATCCAAAATCTAATTTATTATATTGATATTTATATCATTTTACGTTTCTCGTTCAGCTTTTTTATACTAACTTG / CAAGTTAGTATAAAAAAGCTGAACGAGAAACGTAAAATGATATAAATATCAATATAATAAATTAGATTTTGGATAAAAAACAGACTAGATAATACTGTAAAACACAAGATATGCAGACAATATGAATCAACTACATAGATGGTATTAGTGACCTGTAACAGC [attP ; attR.a]
activity (% fluorescent cells) (attP x attR.a, with IHF and XIS): 1.5

TCTGTTACAGGTCACTAATACCATCTAAGTAGTTGATTCATAGTGACTGCATATGTTGTGTTTTACAGTATTATGTAGTCTGTTTTTTATGCAAAATCTAATTTAATATATTGATATTTATATCATTTTACGTTTCTCGTTCAGCTTTTTTATACTAAGTTGGCATTATAAAAAAGCATTGCTTATCAATTTGTTGCAACGAACAGGTCACTATCAGTCAAAATAAAATCATTATTTGATTTC / GAAATCAAATAATGATTTTATTTTGACTGATAGTGACCTGTTCGTTGCAACAAATTGATAAGCAATGCTTTTTTATAATGCCAACTTAGTATAAAAAAGCTGAACGAGAAACGTAAAATGATATAAATATCAATATATTAAATTAGATTTTGCATAAAAAACAGACTACATAATACTGTAAAACACAACATATGCAGTCACTATGAATCAACTACTTAGATGGTATTAGTGACCTGTAACAGA / TCTGTTACAGGTCACTAATACCATCTAAGTAGTTGATTCATAGTGACTGCATATGTTGTGTTTTACAGTATTATGTAGTCTGTTTTTTATGCAAAATCTAATTTAATATATTGATATTTATATCATTTTACGTTTCTCGTTCAGCTTTTTTATACTAACTTG / CAAGTTAGTATAAAAAAGCTGAACGAGAAACGTAAAATGATATAAATATCAATATATTAAATTAGATTTTGCATAAAAAACAGACTACATAATACTGTAAAACACAACATATGCAGTCACTATGAATCAACTACTTAGATGGTATTAGTGACCTGTAACAGA [attP ; attR]
activity (% fluorescent cells) (attP x attR, with IHF and XIS): 2.3

TCTGTTACAGGTCACTAATACCATCTAAGTAGTTGATTCATAGTGACTGCATATGTTGTGTTTTACAGTATTATGTAGTCTGTTTTTTATGCAAAATCTAATTTAATATATTGATATTTATATCATTTTACGTTTCTCGTTCAGCTTTTTTATACTAAGTTGGCATTATAAAAAAGCATTGCTTATCAATTTGTTGCAACGAACAGGTCACTATCAGTCAAAATAAAATCATTATTTGATTTC / GAAATCAAATAATGATTTTATTTTGACTGATAGTGACCTGTTCGTTGCAACAAATTGATAAGCAATGCTTTTTTATAATGCCAACTTAGTATAAAAAAGCTGAACGAGAAACGTAAAATGATATAAATATCAATATATTAAATTAGATTTTGCATAAAAAACAGACTACATAATACTGTAAAACACAACATATGCAGTCACTATGAATCAACTACTTAGATGGTATTAGTGACCTGTAACAGA / TCTGTTACAGGTCACTAATACCATCTAAGTAGTTGATTCATAGTGACTGCATATGTTGTGTTTTACAGTATTATGTAGTCTGTTTTTTATGCAAAATCTAATTTAATATATTGATATTTATATCATTTTACGTTTCTCGTTCAGCTTTTTTATACTAAGTTGGCATTATAAAAAAGCATTGCTTATCAATTTGTTGCAACGAACAGGTCACTATCAGTCAAAATAAAATCATTATTTGATTTC / GAAATCAAATAATGATTTTATTTTGACTGATAGTGACCTGTTCGTTGCAACAAATTGATAAGCAATGCTTTTTTATAATGCCAACTTAGTATAAAAAAGCTGAACGAGAAACGTAAAATGATATAAATATCAATATATTAAATTAGATTTTGCATAAAAAACAGACTACATAATACTGTAAAACACAACATATGCAGTCACTATGAATCAACTACTTAGATGGTATTAGTGACCTGTAACAGA [attP ; attP]
activity (% fluorescent cells) (attP x attP, no IHF plasmid): 1.9
